Test results taken from article PMC2744670 (2009).

Molecular target: T1, CCR1 (Homo sapiens, UniProt P32246)
T1 chain: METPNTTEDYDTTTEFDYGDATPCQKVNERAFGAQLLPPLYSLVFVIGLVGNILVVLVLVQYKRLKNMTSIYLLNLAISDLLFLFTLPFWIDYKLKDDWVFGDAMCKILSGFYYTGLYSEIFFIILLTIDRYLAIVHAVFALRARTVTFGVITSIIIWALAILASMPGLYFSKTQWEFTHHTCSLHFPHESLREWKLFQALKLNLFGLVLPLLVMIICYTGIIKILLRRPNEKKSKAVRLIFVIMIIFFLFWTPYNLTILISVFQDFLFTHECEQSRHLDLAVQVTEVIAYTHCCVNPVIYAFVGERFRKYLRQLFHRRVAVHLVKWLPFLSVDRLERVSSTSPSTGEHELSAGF
Experiment: competition binding with [125I]CCL3 on transfected COS-7 cells

B1: U83A (protein)
chain: FICSSPDAELFSEKSRMSSSVLLGCLLCCMDWSAAVPGKTEPFRKLFDAIMIKKLKSCSAAYPSDLDEGSMCDMADASPTSLELGLSKLDKES
- IC50: 0.4 nM
